Source: article PMC2804221

How the values were obtained:
[1] = biological target: GLP-1 receptor T35A (human) (UniProt P43220); test: radioligand binding
[2] = biological target: GLP-1 receptor L32A (human) (UniProt P43220); test: radioligand binding
[3] = biological target: GLP-1 receptor E127A (human) (UniProt P43220); test: radioligand binding
[4] = biological target: GLP-1 receptor E68A (human) (UniProt P43220); test: radioligand binding
[5] = biological target: Wild-type human GLP-1 receptor, full length (human) (UniProt P43220); test: radioligand binding
[6] = biological target: GLP-1 receptor P90A (human) (UniProt P43220); test: radioligand binding
[7] = biological target: GLP-1 receptor E128A (human) (UniProt P43220); test: radioligand binding
[8] = biological target: GLP-1 receptor L123A (human) (UniProt P43220); test: radioligand binding
[9] = biological target: GLP-1 receptor V36A (human) (UniProt P43220); test: radioligand binding
[10] = biological target: GLP-1 receptor E128Q (human) (UniProt P43220); test: radioligand binding
[11] = biological target: GLP-1 receptor E127Q (human) (UniProt P43220); test: radioligand binding
[12] = biological target: GLP-1 receptor R121A (human) (UniProt P43220); test: radioligand binding
[13] = biological target: GLP-1 receptor T35A (human) (UniProt P43220)
[14] = biological target: GLP-1 receptor L32A (human) (UniProt P43220)
[15] = biological target: GLP-1 receptor E127A (human) (UniProt P43220)
[16] = biological target: GLP-1 receptor E68A (human) (UniProt P43220)
[17] = biological target: Wild-type human GLP-1 receptor, full length (human) (UniProt P43220)
[18] = biological target: GLP-1 receptor P90A (human) (UniProt P43220)
[19] = biological target: GLP-1 receptor E128A (human) (UniProt P43220)
[20] = biological target: GLP-1 receptor L123A (human) (UniProt P43220)
[21] = biological target: GLP-1 receptor V36A (human) (UniProt P43220)
[22] = biological target: GLP-1 receptor E128Q (human) (UniProt P43220)
[23] = biological target: GLP-1 receptor E127Q (human) (UniProt P43220)
[24] = biological target: GLP-1 receptor R121A (human) (UniProt P43220)

Chain of GLP-1 receptor V36A (human) (P43220 24-463 V36A): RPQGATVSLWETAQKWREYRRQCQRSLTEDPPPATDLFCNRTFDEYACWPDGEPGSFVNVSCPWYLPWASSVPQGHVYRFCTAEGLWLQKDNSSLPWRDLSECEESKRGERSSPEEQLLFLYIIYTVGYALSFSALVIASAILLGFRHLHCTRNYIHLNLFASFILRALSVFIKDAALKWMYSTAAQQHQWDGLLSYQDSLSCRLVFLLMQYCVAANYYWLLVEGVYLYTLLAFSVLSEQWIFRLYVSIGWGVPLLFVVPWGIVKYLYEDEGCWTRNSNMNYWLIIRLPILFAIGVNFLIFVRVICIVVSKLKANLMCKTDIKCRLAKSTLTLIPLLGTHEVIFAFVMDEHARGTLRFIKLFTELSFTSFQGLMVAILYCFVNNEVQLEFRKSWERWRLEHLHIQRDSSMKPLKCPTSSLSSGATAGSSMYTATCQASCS
Chain of GLP-1 receptor E128Q (human) (P43220 24-463 E128Q): as the sequence (P43220 24-463 V36A) above, with A13V, E105Q counted along it
Chain of GLP-1 receptor E127Q (human) (P43220 24-463 E127Q): as the sequence (P43220 24-463 V36A) above, with A13V, E104Q counted along it
Chain of GLP-1 receptor R121A (human) (P43220 24-463 R121A): as the sequence (P43220 24-463 V36A) above, with A13V, R98A counted along it
Chain of GLP-1 receptor E127A (human) (P43220 24-463 E127A): as the sequence (P43220 24-463 V36A) above, with A13V, E104A counted along it
Chain of GLP-1 receptor L32A (human) (P43220 24-463 L32A): as the sequence (P43220 24-463 V36A) above, with L9A, A13V counted along it
Chain of GLP-1 receptor L123A (human) (P43220 24-463 L123A): as the sequence (P43220 24-463 V36A) above, with A13V, L100A counted along it
Chain of Wild-type human GLP-1 receptor, full length (human) (P43220 24-463): as the sequence (P43220 24-463 V36A) above, with A13V counted along it
Chain of GLP-1 receptor E68A (human) (P43220 24-463 E68A): as the sequence (P43220 24-463 V36A) above, with A13V, E45A counted along it
Chain of GLP-1 receptor E128A (human) (P43220 24-463 E128A): as the sequence (P43220 24-463 V36A) above, with A13V, E105A counted along it
Chain of GLP-1 receptor P90A (human) (P43220 24-463 P90A): as the sequence (P43220 24-463 V36A) above, with A13V, P67A counted along it
Chain of GLP-1 receptor T35A (human) (P43220 24-463 T35A): as the sequence (P43220 24-463 V36A) above, with T12A, A13V counted along it

Q: How did the IC50 [1] turn out when “Exendin-4 (from UniProt P26349 48-87) (peptide)” was run?
A: The IC50 was 0.44 nM.

Q: What about the IC50 [2] of the same substance?
A: Its IC50 is 5.4 nM.

Q: What about the IC50 [3] of the same substance?
A: Its IC50 is 5.2 nM.

Q: What about the IC50 [4] of the same substance?
A: The IC50 was 0.48 nM.

Q: And the IC50 [5]?
A: Its IC50 is 0.76 nM.

Q: And the IC50 [6]?
A: The IC50 was 1.6 nM.

Q: And the IC50 [7]?
A: The IC50 was 1.8 nM.

Q: What about the IC50 [8] of the same substance?
A: The IC50 was 0.33 nM.

Q: And the IC50 [9]?
A: Its IC50 is 0.98 nM.

Q: What about the IC50 [10] of the same substance?
A: The IC50 was 0.45 nM.

Q: What about the IC50 [11] of the same substance?
A: Its IC50 is 0.82 nM.

Q: What about the IC50 [12] of the same substance?
A: The IC50 was 1.2 nM.

Q: And the EC50 of cAMP production, transiently transfected HEK293 cells [13]?
A: Its EC50 of cAMP production, transiently transfected HEK293 cells is 23 pM.

Q: And the EC50 of cAMP production, transiently transfected HEK293 cells [14]?
A: Its EC50 of cAMP production, transiently transfected HEK293 cells is 52 pM.

Q: And the EC50 of cAMP production, transiently transfected HEK293 cells [15]?
A: Its EC50 of cAMP production, transiently transfected HEK293 cells is 11 pM.

Q: What about the EC50 of cAMP production, transiently transfected HEK293 cells [16] of the same substance?
A: Its EC50 of cAMP production, transiently transfected HEK293 cells is 9.5 pM.

Q: And the EC50 of cAMP production, transiently transfected HEK293 cells [17]?
A: The EC50 of cAMP production, transiently transfected HEK293 cells was 5.5 pM.

Q: What about the EC50 of cAMP production, transiently transfected HEK293 cells [18] of the same substance?
A: The EC50 of cAMP production, transiently transfected HEK293 cells was 30 pM.

Q: What about the EC50 of cAMP production, transiently transfected HEK293 cells [19] of the same substance?
A: Its EC50 of cAMP production, transiently transfected HEK293 cells is 25 pM.

Q: And the EC50 of cAMP production, transiently transfected HEK293 cells [20]?
A: Its EC50 of cAMP production, transiently transfected HEK293 cells is 9.5 pM.

Q: And the EC50 of cAMP production, transiently transfected HEK293 cells [21]?
A: Its EC50 of cAMP production, transiently transfected HEK293 cells is 36 pM.

Q: What about the EC50 of cAMP production, transiently transfected HEK293 cells [22] of the same substance?
A: Its EC50 of cAMP production, transiently transfected HEK293 cells is 8 pM.

Q: What about the EC50 of cAMP production, transiently transfected HEK293 cells [23] of the same substance?
A: Its EC50 of cAMP production, transiently transfected HEK293 cells is 6.8 pM.

Q: What about the EC50 of cAMP production, transiently transfected HEK293 cells [24] of the same substance?
A: The EC50 of cAMP production, transiently transfected HEK293 cells was 44 pM.
